Measurements: US20260174888A1 (ARARIS BIOTECH, published 2026)
Where two headings read alike, the source gives them in different places.

T1: CEACAM-5 (UniProt P06731 35-702, limits assumed)
T1 sequence (looked up): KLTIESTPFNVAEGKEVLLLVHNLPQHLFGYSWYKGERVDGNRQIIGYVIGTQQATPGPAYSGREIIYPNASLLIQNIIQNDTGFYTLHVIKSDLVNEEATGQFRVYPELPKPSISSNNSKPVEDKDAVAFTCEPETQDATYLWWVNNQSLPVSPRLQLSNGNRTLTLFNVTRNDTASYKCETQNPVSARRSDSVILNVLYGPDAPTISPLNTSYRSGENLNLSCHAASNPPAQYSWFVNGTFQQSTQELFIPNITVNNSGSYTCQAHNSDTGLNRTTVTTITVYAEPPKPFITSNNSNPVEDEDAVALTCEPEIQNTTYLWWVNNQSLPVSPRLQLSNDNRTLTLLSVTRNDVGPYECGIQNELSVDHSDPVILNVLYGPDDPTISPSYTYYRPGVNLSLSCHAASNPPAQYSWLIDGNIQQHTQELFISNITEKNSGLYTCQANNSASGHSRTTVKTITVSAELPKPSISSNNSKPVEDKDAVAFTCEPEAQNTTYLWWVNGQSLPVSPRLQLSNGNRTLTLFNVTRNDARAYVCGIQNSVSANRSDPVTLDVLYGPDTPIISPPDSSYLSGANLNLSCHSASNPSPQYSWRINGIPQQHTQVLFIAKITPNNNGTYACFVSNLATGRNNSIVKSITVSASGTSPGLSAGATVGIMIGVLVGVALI


Assays:
CEACAM-5 [1] = molecular target: T1, CEACAM-5; assay: cell-based or functional assay
CEACAM-5 [2] = molecular target: T1, CEACAM-5; assay: cell-based or functional assay; remark: listed apart in the source

Row | Binder | IC50 (nM), cytotoxicity on NCI-H2110 cells, CellTiterGlo viability, 96 hours (CEACAM-5 [1]) [nM] | IC50 (nM), cytotoxicity on NCI-H2110 cells, CellTiterGlo viability, 96 hours (CEACAM-5 [2]) [nM]
1 | ARA-20-RKAA-PABC-MMAE (antibody, human IgG1, kappa, V domains shown, linker-payload RKAA-PABC-MMAE (FIG. 6) conjugated by MTG to the native, glycosylated antibody; conjugated residue not stated in the example) VH: EVQLVESGGGVVQPGRSLRLSCSASGFDFTTYWMSWVRQAPGKGLEWIGEIHPDSSTINYAPSLKDRFTISRDNAKNTLFLQMDSLRPEDTGVYFCASLYFGFPWFAYWGQGTPVTVSS VL: DIQLTQSPSSLSASVGDRVTITCKASQDVGTSVAWYQQKPGKAPKLLIYWTSTRHTGVPSRFSGSGSGTDFTFTISSLQPEDIATYYCQQYSLYRSFGQGTKVEIKR | 30.2 | –
2 | ARA-20-FA-PEG12-RKAA-PABC-MMAE (antibody, human IgG1, kappa, V domains shown, linker-payload FA-PEG12-RKAA-PABC-MMAE (FIG. 4) conjugated by MTG to the native, glycosylated antibody; conjugated residue not stated in the example) VH: EVQLVESGGGVVQPGRSLRLSCSASGFDFTTYWMSWVRQAPGKGLEWIGEIHPDSSTINYAPSLKDRFTISRDNAKNTLFLQMDSLRPEDTGVYFCASLYFGFPWFAYWGQGTPVTVSS VL: DIQLTQSPSSLSASVGDRVTITCKASQDVGTSVAWYQQKPGKAPKLLIYWTSTRHTGVPSRFSGSGSGTDFTFTISSLQPEDIATYYCQQYSLYRSFGQGTKVEIKR | 4.68 | –
3 | ARA-20-FA-PEG24-RKAA-PABC-MMAE (antibody, human IgG1, kappa, V domains shown, linker-payload FA-PEG24-RKAA-PABC-MMAE (FIG. 3) conjugated by MTG to the native, glycosylated antibody; conjugated residue not stated in the example) VH: EVQLVESGGGVVQPGRSLRLSCSASGFDFTTYWMSWVRQAPGKGLEWIGEIHPDSSTINYAPSLKDRFTISRDNAKNTLFLQMDSLRPEDTGVYFCASLYFGFPWFAYWGQGTPVTVSS VL: DIQLTQSPSSLSASVGDRVTITCKASQDVGTSVAWYQQKPGKAPKLLIYWTSTRHTGVPSRFSGSGSGTDFTFTISSLQPEDIATYYCQQYSLYRSFGQGTKVEIKR | 5.93 | –
4 | ARA-20-ARK-PABC-MMAE (antibody, human IgG1, kappa, V domains shown, linker-payload ARK-PABC-MMAE conjugated by MTG to the native, glycosylated antibody; conjugated residue not stated in the example) VH: EVQLVESGGGVVQPGRSLRLSCSASGFDFTTYWMSWVRQAPGKGLEWIGEIHPDSSTINYAPSLKDRFTISRDNAKNTLFLQMDSLRPEDTGVYFCASLYFGFPWFAYWGQGTPVTVSS VL: DIQLTQSPSSLSASVGDRVTITCKASQDVGTSVAWYQQKPGKAPKLLIYWTSTRHTGVPSRFSGSGSGTDFTFTISSLQPEDIATYYCQQYSLYRSFGQGTKVEIKR | – | 58
5 | ARA-20-FA-PEG12-ARK-PABC-MMAE (antibody, human IgG1, kappa, V domains shown, linker-payload FA-PEG12-ARK-PABC-MMAE (FIG. 5) conjugated by MTG to the native, glycosylated antibody; conjugated residue not stated in the example) VH: EVQLVESGGGVVQPGRSLRLSCSASGFDFTTYWMSWVRQAPGKGLEWIGEIHPDSSTINYAPSLKDRFTISRDNAKNTLFLQMDSLRPEDTGVYFCASLYFGFPWFAYWGQGTPVTVSS VL: DIQLTQSPSSLSASVGDRVTITCKASQDVGTSVAWYQQKPGKAPKLLIYWTSTRHTGVPSRFSGSGSGTDFTFTISSLQPEDIATYYCQQYSLYRSFGQGTKVEIKR | – | 27.8
